# Experimental data as given in patent publication US12247244B2, “Membrane protein activity measurement method” (THE UNIVERSITY OF TOKYO, priority 2018, dated 2025).
# T1: human Flt3 (hFlt3) (Homo sapiens, UniProt P36888)
# T1 construct: expressed in transfected cells; host or cells: NCP19 cells (HeLa-derived knock-in clone)
# T1 sequence (P36888 27-993): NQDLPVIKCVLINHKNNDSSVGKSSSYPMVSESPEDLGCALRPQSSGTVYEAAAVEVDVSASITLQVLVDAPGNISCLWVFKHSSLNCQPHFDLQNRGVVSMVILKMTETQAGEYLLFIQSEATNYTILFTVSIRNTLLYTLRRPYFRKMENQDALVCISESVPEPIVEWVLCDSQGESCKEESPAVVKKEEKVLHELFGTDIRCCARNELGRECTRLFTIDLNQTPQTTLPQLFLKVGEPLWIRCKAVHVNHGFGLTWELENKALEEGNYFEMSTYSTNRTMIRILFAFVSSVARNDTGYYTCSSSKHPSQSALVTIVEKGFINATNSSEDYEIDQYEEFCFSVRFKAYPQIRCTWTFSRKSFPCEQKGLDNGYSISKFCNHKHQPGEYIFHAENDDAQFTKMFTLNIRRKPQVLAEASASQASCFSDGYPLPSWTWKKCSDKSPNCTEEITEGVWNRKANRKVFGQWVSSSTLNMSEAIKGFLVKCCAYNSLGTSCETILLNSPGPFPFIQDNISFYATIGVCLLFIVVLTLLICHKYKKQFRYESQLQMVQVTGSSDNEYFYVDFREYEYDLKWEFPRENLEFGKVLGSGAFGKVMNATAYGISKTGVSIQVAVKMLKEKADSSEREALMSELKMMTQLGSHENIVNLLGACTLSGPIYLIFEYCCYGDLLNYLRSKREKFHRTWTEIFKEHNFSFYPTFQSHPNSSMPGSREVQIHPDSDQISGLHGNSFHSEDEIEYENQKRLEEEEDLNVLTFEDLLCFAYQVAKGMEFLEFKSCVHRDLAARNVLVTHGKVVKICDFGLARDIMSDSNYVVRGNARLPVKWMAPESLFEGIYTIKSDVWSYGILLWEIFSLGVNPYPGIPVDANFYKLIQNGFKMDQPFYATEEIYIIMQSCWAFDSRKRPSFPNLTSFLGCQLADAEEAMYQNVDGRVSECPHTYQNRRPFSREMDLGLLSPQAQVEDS
# B1: Flt3-ligand: ligand used to stimulate the receptor tyrosine kinase hFlt3 (protein)
# chain: TQDCSFQHSPISSDFAVKIRELSDYLLQDYPVTVASNLQDEELCGGLWRLVLAQRWMERLKTVAGSKMQGLLERVNTEIHFVTKCAFQPPPSCLRFVQTNISRLLQETSEQLVALKPWITRQNFSRCLELQCQPDSSTLPPPWSPRPLEATAPTA
# Target: T1, human Flt3 (hFlt3)
# Experiment: NCP19 knock-in reporter cell assay (UAS-luciferase) for hFlt3 activation
# Type: cell-based
# Conditions: NCP19 cells transfected with hFlt3; ligand 30, 3, 0.3, 0.03, 0 ng/ml; stimulation for 6 hours; FIG. 12
# Procedure: • Used cells: NCP19 • Used plasmids: • (1) a plasmid that expresses hFlt3 (an hFlt3 expression plasmid); and • (2) UAS-luciferase. • Day 1: NCP19 cells were seeded on a 96-well plate at a density of 24000 cells/well. • Day 2: Within 24 hours after the seeding on the 96-well plate, 90 ng of DNA per well (a plasmid cocktail consisting of 60 ng of hFlt3+30 ng of UAS-luciferase) was transfected into the cells according to a lipofection method. • Day 3: Twenty-four hours after the transfection, the cells were stimulated by a ligand (Flt3-ligand: at concentrations of 30, 3, 0.3, 0.03, and 0 ng/ml). After the stimulation for 6 hours, a culture supernatant was discarded, and a substrate for luciferase was added, and then, luminescence signals were measured using a plate reader.
molecule,measurement,value
B1,"activation of hFlt3, luminescence of luciferase",detected as the luminescence of luciferase
